Results on four proteins are retold here after publication PMC11582362 (Nature Communications, 2023).

Data set [1] concerns the molecule itself. Put plainly: SEC-SAXS; BioSEC-3 column, 15 °C, 0.3 mL/min, 20 mM Na-HEPES pH 7.3, 55 mM KOAc, 10 mM NaCl, 1 mM TCEP; purification tags cleaved off; SWING beamline, SOLEIL.
Data set [2] concerns the molecule itself. Put plainly: SEC-MALS; SEC-MALLS, BioSEC-3 column, 25 °C, 0.4 mL/min, 20 mM Na-phosphate pH 7.0, 100 mM NaCl, 2 mM 2-mercaptoethanol; His6-tag kept. On the technique in general: Size exclusion chromatography separates by hydrodynamic size, large species first.

B1: ADAR1-dsRBD3 dsRBD3-mid construct (residues 708-801), tag cleaved (domain or fragment, human, UniProt P55265 708-801, looked up)
chain: MMPNKVRKIGELVRYLNTNPVGGLLEYARSHGFAAEFKLVDQSGPPHEPKFVYQAKVGGRWFPAVCAHSKKQGKQEAADAALRVLIGENEKAER
notes: human ADAR1, third dsRBD, residues 708-801 (Uniprot entry P55265); Modified pET28a with TEV site; also called dsRBD-mid; source: E. coli BL21(DE3) Codon-plus (RIL), purified (Ni-NTA, TEV cleavage, SEC); not shown: His6, N-terminal, cleaved
For the protein B1, the stoichiometry N (as a rule, the number of molecules, sites or subunits per partner or assembly) in data set [1] was 2.

B2: ADAR1-dsRBD3 (residues 708-801) with uncleavable His6-tag, wild type (domain or fragment, human, UniProt P55265 708-801, looked up)
chain: MMPNKVRKIGELVRYLNTNPVGGLLEYARSHGFAAEFKLVDQSGPPHEPKFVYQAKVGGRWFPAVCAHSKKQGKQEAADAALRVLIGENEKAER
notes: human ADAR1, third dsRBD, residues 708-801 (Uniprot entry P55265); pET28a between NdeI and XhoI; also called wild-type ADAR1-dsRBD3; source: E. coli BL21(DE3) Codon-plus (RIL), purified (Ni-NTA, SEC); not shown: His6, N-terminal, kept
With B2, the “stoichiometry N” value in data set [2] worked out at 2.

B3: ADAR1-dsRBD3 dsRBD3-short construct (residues 716-797) (domain or fragment, human, UniProt P55265 716-797, looked up)
chain: IGELVRYLNTNPVGGLLEYARSHGFAAEFKLVDQSGPPHEPKFVYQAKVGGRWFPAVCAHSKKQGKQEAADAALRVLIGENE
notes: human ADAR1, folded part of the third dsRBD, residues 716-797 (Uniprot entry P55265); Modified pET28a with TEV site; also called dsRBD-short; ADAR1-dsRBD3 (crystal structures); source: E. coli BL21(DE3) Codon-plus (RIL), purified (Ni-NTA, TEV cleavage, SEC); not shown: His6, N-terminal, cleaved
With B3, in data set [1], the “stoichiometry N” value worked out at 2.

B4: ADAR1-dsRBD3 dsRBD3-long construct (residues 688-817) (domain or fragment, human, UniProt P55265 688-817, looked up)
chain: MASDNQPEGMISESLDNLESMMPNKVRKIGELVRYLNTNPVGGLLEYARSHGFAAEFKLVDQSGPPHEPKFVYQAKVGGRWFPAVCAHSKKQGKQEAADAALRVLIGENEKAERMGFTEVTPVTGASLRR
notes: human ADAR1, third dsRBD with flanking regions, residues 688-817 (Uniprot entry P55265); Modified pET28a with TEV site; source: E. coli BL21(DE3) Codon-plus (RIL), purified (Ni-NTA, TEV cleavage, SEC); not shown: His6, N-terminal, cleaved
In the case of B4, in data set [1], the “stoichiometry N” value was 2.
